Consider 57 variants from the RNAGym collection of RNA variant scans (doi:10.7554/elife.80360).

To fix the notation:
B1: Hammerhead Ribozyme (parent)
chain: ACCGGAUGUGCUUUCCGGUCUGAUGAGUCCGUGAGGACGAAACAG

The variants in this series derive from B1. As to the kind of experiment: self-cleavage, relative activity (ratio to wild type); higher = more cleavage; co-transcriptional.
Turning to ACCGGAUGUGCUUUCCGGUCUGAUGAUUCCGUGAGCACGAAACAG [G27U G36C], the self-cleavage is 0.304.
For ACCGGAUGUGCUUUCCGGUCUGAUGACUCGGUGAGGACGAAACAG [G27C C30G] the value was 0.459; for ACCGGAUGUGCUUUCCGGUCUGAUGACUCUGUGAGGACGAAACAG [G27C C30U], 0.818.
With ACCGGAUGUGCUUUCCGGUCUGAUGACUCAGUGAGGACGAAACAG [G27C C30A] the figure was 0.401.
For the variant ACCGGAUGUGCUUUCCGGUCUGAUGAUUCCGUGAGGACUAAACAG [G27U G39U], the self-cleavage came out at 0.297.
For ACCGGAUGUGCUUUCCGGUCUGAUGAUUCCGUGAGGACCAAACAG [G27U G39C] the value was 0.314; for ACCGGAUGUGCUUUCCGGUCUGAUGAUUCCGUGAGGACAAAACAG [G27U G39A], 0.341.
For ACCGGAUGUGCUUUCCGGUCUGAUGACGCCGUGAGGACGAAACAG [G27C U28G] the value was 0.389.
For ACCGGAUGUGCUUUCCGGUCUGAUGACACCGUGAGGACGAAACAG [G27C U28A] the value was 0.508; for ACCGGAUGUGCUUUCCGGUCUGAUGACCCCGUGAGGACGAAACAG [G27C U28C], 0.431.
With ACCGGAUGUGCUUUCCGGUCUGAUGACUCCGUGAGGACGAAACAA [G27C G45A], the self-cleavage came out at 0.432.
For ACCGGAUGUGCUUUCCGGUCUGAUGACUCCGUGAGGACGAAACAU [G27C G45U] the value was 0.564; for ACCGGAUGUGCUUUCCGGUCUGAUGACUCCGUGAGGACGAAACAC [G27C G45C], 0.493; for ACCGGAUGUGCUUUCCGGUCUGAUGACUCCGCGAGGACGAAACAG [G27C U32C], 1.01.
Turning to ACCGGAUGUGCUUUCCGGUCUGAUGACUCCGAGAGGACGAAACAG [G27C U32A], the self-cleavage was found to be 0.716.
With ACCGGAUGUGCUUUCCGGUCUGAUGACUCCGGGAGGACGAAACAG [G27C U32G] the figure was 0.705; with ACCGGAUGUGCUUUCCGGUCUGAUGACUCCGUGAGGACGAAACCG [G27C A44C], 0.38; with ACCGGAUGUGCUUUCCGGUCUGAUGACUCCGUGAGGACGAAACGG [G27C A44G], 0.988.
With ACCGGAUGUGCUUUCCGGUCUGAUGACUCCGUGAGGACGAAACUG [G27C A44U] the figure was 0.445; with ACCGGAUGUGCUUUCCGGUCUGAUGAUUCCGUGAGGACGAAACGG [G27U A44G], 0.69.
With ACCGGAUGUGCUUUCCGGUCUGAUGAUUCCGUGAGGACGAAACUG [G27U A44U] the figure was 0.349; with ACCGGAUGUGCUUUCCGGUCUGAUGAUUCCGUGAGGACGAAACCG [G27U A44C], 0.305; with ACCGGAUGUGCUUUCCGGUCUGAUGAUUCCGUUAGGACGAAACAG [G27U G33U], 0.535.
Turning to ACCGGAUGUGCUUUCCGGUCUGAUGAUUCCGUCAGGACGAAACAG [G27U G33C], the self-cleavage was found to be 0.484.
For ACCGGAUGUGCUUUCCGGUCUGAUGAUUCCGUAAGGACGAAACAG [G27U G33A] the value was 0.754; for ACCGGAUGUGCUUUCCGGUCUGAUGAUACCGUGAGGACGAAACAG [G27U U28A], 0.552.
For ACCGGAUGUGCUUUCCGGUCUGAUGAUCCCGUGAGGACGAAACAG [G27U U28C] the value was 0.38; for ACCGGAUGUGCUUUCCGGUCUGAUGAUGCCGUGAGGACGAAACAG [G27U U28G], 0.507.
With ACCGGAUGUGCUUUCCGGUCUGAUGAUUCCGUGAGGACGAAACAC [G27U G45C] the figure was 0.365; with ACCGGAUGUGCUUUCCGGUCUGAUGAUUCCGUGAGGACGAAACAA [G27U G45A], 0.363; with ACCGGAUGUGCUUUCCGGUCUGAUGAUUCCGUGAGGACGAAACAU [G27U G45U], 0.488.
ACCGGAUGUGCUUUCCGGUCUGAUGAUUCCGUGAGGACGAAGCAG [G27U A42G]: the self-cleavage is 0.261.
For ACCGGAUGUGCUUUCCGGUCUGAUGAUUCCGUGAGGACGAAUCAG [G27U A42U] the value was 0.315.
With ACCGGAUGUGCUUUCCGGUCUGAUGAUUCCGUGAGGACGAACCAG [G27U A42C] the figure was 0.294; with ACCGGAUGUGCUUUCCGGUCUGAUGACUCCGUAAGGACGAAACAG [G27C G33A], 0.864.
For ACCGGAUGUGCUUUCCGGUCUGAUGACUCCGUCAGGACGAAACAG [G27C G33C] the value was 0.723; for ACCGGAUGUGCUUUCCGGUCUGAUGACUCCGUUAGGACGAAACAG [G27C G33U], 0.686.
With ACCGGAUGUGCUUUCCGGUCUGAUGACUCCGUGAGGAUGAAACAG [G27C C38U], the self-cleavage was found to be 0.792.
For ACCGGAUGUGCUUUCCGGUCUGAUGACUCCGUGAGGAGGAAACAG [G27C C38G] the value was 0.426.
Regarding ACCGGAUGUGCUUUCCGGUCUGAUGACUCCGUGAGGAAGAAACAG [G27C C38A], the self-cleavage was 0.863.
With ACCGGAUGUGCUUUCCGGUCUGAUGACUCCGUGAGGACGAAACAG [G27C] the figure was 0.843.
For ACCGGAUGUGCUUUCCGGUCUGAUGAUUCCGUGAGGACGAAACAG [G27U] the value was 0.561.
With ACCGGAUGUGCUUUCCGGUCUGAUGAUUCCGUGAGGACGUAACAG [G27U A40U] the figure was 0.402.
On to ACCGGAUGUGCUUUCCGGUCUGAUGAUUCCGUGAGGACGCAACAG [G27U A40C], for which the self-cleavage was determined as 0.363.
For ACCGGAUGUGCUUUCCGGUCUGAUGAUUCCGUGAGGACGGAACAG [G27U A40G] the value was 0.298.
For ACCGGAUGUGCUUUCCGGUCUGAUGAUUCCGUGAGGAGGAAACAG [G27U C38G] the value was 0.597; for ACCGGAUGUGCUUUCCGGUCUGAUGAUUCCGUGAGGAUGAAACAG [G27U C38U], 0.683; for ACCGGAUGUGCUUUCCGGUCUGAUGAUUCCGUGAGGAAGAAACAG [G27U C38A], 0.785.
For ACCGGAUGUGCUUUCCGGUCUGAUGAUUCCGUGAAGACGAAACAG [G27U G35A] the value was 0.334; for ACCGGAUGUGCUUUCCGGUCUGAUGAUUCCGUGAUGACGAAACAG [G27U G35U], 0.345; for ACCGGAUGUGCUUUCCGGUCUGAUGAUUCCGUGACGACGAAACAG [G27U G35C], 0.407.
In the case of ACCGGAUGUGCUUUCCGGUCUGAUGAUUCCGUGAGGUCGAAACAG [G27U A37U], the self-cleavage turned out to be 0.521.
For ACCGGAUGUGCUUUCCGGUCUGAUGAUUCCGUGAGGGCGAAACAG [G27U A37G] the value was 0.501; for ACCGGAUGUGCUUUCCGGUCUGAUGAUUCCGUGAGGCCGAAACAG [G27U A37C], 0.308.
On to ACCGGAUGUGCUUUCCGGUCUGAUGACUCCGUGCGGACGAAACAG [G27C A34C], for which the self-cleavage amounted to 0.411.
With ACCGGAUGUGCUUUCCGGUCUGAUGACUCCGUGUGGACGAAACAG [G27C A34U] the figure was 0.436; with ACCGGAUGUGCUUUCCGGUCUGAUGACUCCGUGGGGACGAAACAG [G27C A34G], 0.653.
